Measurements from patent publication US20110263454A1, “Methods of Identifying Functional Characteristics of Promoters, Transcription Modifying Proteins and Transcription Modulating Agents” (Salk Institute for Biological Studies, priority 2008, published 2011).

B1: ERR2: Estrogen Related Receptor β (NR3B2, ERRb), cDNA driver (protein, UniProt O95718 1-433, looked up)
Steroid hormone receptor ERR2: MSSDDRHLGSSCGSFIKTEPSSPSSGIDALSHHSPSGSSDASGGFGLALGTHANGLDSPPMFAGAGLGGTPCRKSYEDCASGIMEDSAIKCEYMLNAIPKRLCLVCGDIASGYHYGVASCEACKAFFKRTIQGNIEYSCPATNECEITKRRRKSCQACRFMKCLKVGMLKEGVRLDRVRGGRQKYKRRLDSESSPYLSLQISPPAKKPLTKIVSYLLVAEPDKLYAMPPPGMPEGDIKALTTLCDLADRELVVIIGWAKHIPGFSSLSLGDQMSLLQSAWMEILILGIVYRSLPYDDKLVYAEDYIMDEEHSRLAGLLELYRAILQLVRRYKKLKVEKEEFVTLKALALANSDSMYIEDLEAVQKLQDLLHEALQDYELSQRHEEPWRTGKLLLTLPLLRQTAAKAVQHFYSVKLQGKVPMHKLFLEMLEAKV
B2: ERR3: Estrogen Related Receptor γ (NR3B3, ERRg), cDNA driver (protein, UniProt P62508 1-458, looked up)
Estrogen-related receptor …: MDSVELCLPESFSLHYEEELLCRMSNKDRHIDSSCSSFIKTEPSSPASLTDSVNHHSPGGSSDASGSYSSTMNGHQNGLDSPPLYPSAPILGGSGPVRKLYDDCSSTIVEDPQTKCEYMLNSMPKRLCLVCGDIASGYHYGVASCEACKAFFKRTIQGNIEYSCPATNECEITKRRRKSCQACRFMKCLKVGMLKEGVRLDRVRGGRQKYKRRIDAENSPYLNPQLVQPAKKPYNKIVSHLLVAEPEKIYAMPDPTVPDSDIKALTTLCDLADRELVVIIGWAKHIPGFSTLSLADQMSLLQSAWMEILILGVVYRSLSFEDELVYADDYIMDEDQSKLAGLLDLNNAILQLVKKYKSMKLEKEEFVTLKAIALANSDSMHIEDVEAVQKLQDVLHEALQDYEAGQHMEDPRRAGKMLMTLPLLRQTSTKAVQHFYNIKLEGKVPMHKLFLEMLEAKV
B3: CTF2: COUP-TF2 (NR2F2), cDNA driver (protein, UniProt P24468 1-414, looked up)
COUP transcription factor 2: MAMVVSTWRDPQDEVPGSQGSQASQAPPVPGPPPGAPHTPQTPGQGGPASTPAQTAAGGQGGPGGPGSDKQQQQQHIECVVCGDKSSGKHYGQFTCEGCKSFFKRSVRRNLSYTCRANRNCPIDQHHRNQCQYCRLKKCLKVGMRREAVQRGRMPPTQPTHGQFALTNGDPLNCHSYLSGYISLLLRAEPYPTSRFGSQCMQPNNIMGIENICELAARMLFSAVEWARNIPFFPDLQITDQVALLRLTWSELFVLNAAQCSMPLHVAPLLAAAGLHASPMSADRVVAFMDHIRIFQEQVEKLKALHVDSAEYSCLKAIVLFTSDACGLSDVAHVESLQEKSQCALEEYVRSQYPNQPTRFGKLLLRLPSLRTVSSSVIEQLFFVRLVGKTPIETLIRDMLLSGSSFNWPYMAIQ
B4: CTF3: COUP-TF3 (NR2F6), cDNA driver (protein, UniProt P10588 1-404, looked up)
Nuclear receptor subfamily 2 …: MAMVTGGWGGPGGDTNGVDKAGGYPRAAEDDSASPPGAASDAEPGDEERPGLQVDCVVCGDKSSGKHYGVFTCEGCKSFFKRSIRRNLSYTCRSNRDCQIDQHHRNQCQYCRLKKCFRVGMRKEAVQRGRIPHSLPGAVAASSGSPPGSALAAVASGGDLFPGQPVSELIAQLLRAEPYPAAAGRFGAGGGAAGAVLGIDNVCELAARLLFSTVEWARHAPFFPELPVADQVALLRLSWSELFVLNAAQAALPLHTAPLLAAAGLHAAPMAAERAVAFMDQVRAFQEQVDKLGRLQVDSAEYGCLKAIALFTPDACGLSDPAHVESLQEKAQVALTEYVRAQYPSQPQRFGRLLLRLPALRAVPASLISQLFFMRLVGKTPIETLIRDMLLSGSTFNWPYGSGQ
B5: Erb: Estrogen Receptor β (NR3A2, ERb), cDNA driver (protein, UniProt Q92731 1-530, looked up)
Estrogen receptor beta: MDIKNSPSSLNSPSSYNCSQSILPLEHGSIYIPSSYVDSHHEYPAMTFYSPAVMNYSIPSNVTNLEGGPGRQTTSPNVLWPTPGHLSPLVVHRQLSHLYAEPQKSPWCEARSLEHTLPVNRETLKRKVSGNRCASPVTGPGSKRDAHFCAVCSDYASGYHYGVWSCEGCKAFFKRSIQGHNDYICPATNQCTIDKNRRKSCQACRLRKCYEVGMVKCGSRRERCGYRLVRRQRSADEQLHCAGKAKRSGGHAPRVRELLLDALSPEQLVLTLLEAEPPHVLISRPSAPFTEASMMMSLTKLADKELVHMISWAKKIPGFVELSLFDQVRLLESCWMEVLMMGLMWRSIDHPGKLIFAPDLVLDRDEGKCVEGILEIFDMLLATTSRFRELKLQHKEYLCVKAMILLNSSMYPLVTATQDADSSRKLAHLLNAVTDALVWVIAKSGISSQQQSMRLANLLMLLSHVRHASNKGMEHLLNMKCKNVVPVYDLLLEMLNAHVLRGCKSSITGSECSPAEDSKSKEGSQNPQSQ
B6: CTF1: COUP-TF1 (NR2F1), cDNA driver (protein, UniProt P10589 1-423, looked up)
COUP transcription factor 1: MAMVVSSWRDPQDDVAGGNPGGPNPAAQAARGGGGGAGEQQQQAGSGAPHTPQTPGQPGAPATPGTAGDKGQGPPGSGQSQQHIECVVCGDKSSGKHYGQFTCEGCKSFFKRSVRRNLTYTCRANRNCPIDQHHRNQCQYCRLKKCLKVGMRREAVQRGRMPPTQPNPGQYALTNGDPLNGHCYLSGYISLLLRAEPYPTSRYGSQCMQPNNIMGIENICELAARLLFSAVEWARNIPFFPDLQITDQVSLLRLTWSELFVLNAAQCSMPLHVAPLLAAAGLHASPMSADRVVAFMDHIRIFQEQVEKLKALHVDSAEYSCLKAIVLFTSDACGLSDAAHIESLQEKSQCALEEYVRSQYPNQPSRFGKLLLRLPSLRTVSSSVIEQLFFVRLVGKTPIETLIRDMLLSGSSFNWPYMSIQCS

Key:
mUCP1 promoter = assay: NHR-promoter luciferase screen, mUCP1 promoter; type: cell-based, mouse; conditions: for Luc. act., normalized to lacZ / Normalized Luc. act., normalized to control: mUCP1 promoter reporter, co-transfected HR, with or without its ligand; for Normalized Luc. act., normalized to control: relative to control; for luciferase activity normalized to lacZ activity and to a control, mUCP!: mUCP! promoter-luciferase, CV-1 cells, NHR +/- ligand, control = 1.00
In short: (§1)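 CV-1 cells were co-transfected with 50 ng NHR (homodimer or NHR/RXR heterodimer), 100 ng promoter-luciferase construct and 50 ng LacZ. Luciferase was normalized to LacZ and to a no-NHR/no-ligand control.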

SREBP1c promoter = assay: NHR-promoter luciferase screen, SREBP1c promoter; type: cell-based, mouse; conditions: for Luc. act., normalized to lacZ / Normalized Luc. act., normalized to control: SREBP1c promoter, HR component without or with ligand; for mSREBP1-c promoter reporter activity: transcription factor +/- ligand, control = 1.00
In short: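 Values are luciferase activity normalised to LacZ (transfection control) and to a control lacking NHR or ligand. Read-out at 48 h in CV-1 cells carrying 100 ng promoter-reporter, 50 ng receptor (alone or with RXR) and 50 ng LacZ.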

hMyoD promoter = assay: NHR-promoter luciferase screen, hMyoD promoter; type: cell-based, human; conditions: for Luc. act., normalized to lacZ / Normalized Luc. act., normalized to control: MyoD promoter reporter, co-transfected HR, without or with its ligand; for Normalized Luc. act., normalized to control: relative to control; for luciferase activity normalized to lacZ activity and to a control, hMyoD: hMyoD promoter-luciferase, CV-1 cells, NHR +/- ligand, control = 1.00
In short: as §1

mDio2 promoter = assay: NHR-promoter luciferase screen, mDio2 promoter; type: cell-based, mouse; conditions: for Luc. act., normalized to lacZ / Normalized Luc. act., normalized to control: Dio2, HR component without or with its ligand; for mDio2 promoter reporter activity: transcription factor +/- ligand, control = 1.00
In short: as §1

hPOMC promoter = assay: NHR-promoter luciferase screen, hPOMC promoter; type: cell-based, human; conditions: for Luc. act., normalized to lacZ / Normalized Luc. act., normalized to control: hPOMC promoter, HR/ligand component; for hPOMC promoter reporter activity: transcription factor +/- ligand, control = 1.00
In short: as §1

hTNFa promoter = assay: NHR-promoter luciferase screen, hTNFa promoter; type: cell-based, human; conditions: for Luc. act., normalized to lacZ / Normalized Luc. act., normalized to control: TNFa promoter, HR component without or with ligand; for hTNFa promoter reporter activity: transcription factor +/- ligand, control = 1.00
In short: as §1

Molecule | Luc. act., normalized to lacZ (mUCP1 promoter) | Normalized Luc. act., normalized to control (mUCP1 promoter) | luciferase activity normalized to lacZ activity and to a control, mUCP! (mUCP1 promoter) | Luc. act., normalized to lacZ (SREBP1c promoter) | Normalized Luc. act., normalized to control (SREBP1c promoter) | mSREBP1-c promoter reporter activity (SREBP1c promoter) | Luc. act., normalized to lacZ (hMyoD promoter) | Normalized Luc. act., normalized to control (hMyoD promoter) | luciferase activity normalized to lacZ activity and to a control, hMyoD (hMyoD promoter) | Luc. act., normalized to lacZ (mDio2 promoter) | Normalized Luc. act., normalized to control (mDio2 promoter) | mDio2 promoter reporter activity (mDio2 promoter) | Luc. act., normalized to lacZ (hPOMC promoter) | Normalized Luc. act., normalized to control (hPOMC promoter) | hPOMC promoter reporter activity (hPOMC promoter) | Luc. act., normalized to lacZ (hTNFa promoter) | Normalized Luc. act., normalized to control (hTNFa promoter) | hTNFa promoter reporter activity (hTNFa promoter) | luciferase/LacZ, hPOMC (selected results) (hPOMC promoter; hPOMC promoter-luciferase, NHR +/- ligand, control = 1.0)
B1 | 13.1 | 3.0 | 2.95 | 347.9 | 1.1 | 1.08 | 164.8 | 2.6 | 2.60 | 39.5 | 2.5 | 2.52 | 11.6 | 2.7 | 2.70 | 1655.6 | 1.7 | 1.68 | –
B2 | 26.5 | 6.0 | 5.98 | 406.7 | 1.3 | 1.26 | 129.6 | 2.0 | 2.05 | 85.6 | 5.4 | 5.45 | 17.6 | 4.1 | 4.09 | 2705.8 | 2.8 | 2.75 | 4.1
B3 | 1.9 | 0.4 | 0.43 | 455.6 | 1.4 | 1.41 | 60.9 | 1.0 | 0.96 | 18.8 | 1.2 | 1.20 | – | 0.0 | 0.00 | 1014.3 | 1.0 | 1.03 | –
B4 | 1.9 | 0.4 | 0.42 | 230.3 | 0.7 | 0.71 | 35.6 | 0.6 | 0.56 | 15.3 | 1.0 | 0.97 | 1.8 | 0.4 | 0.42 | 932.4 | 0.9 | 0.95 | –
B5 | 3.3 | 0.8 | 0.75 | 249.2 | 0.8 | 0.77 | 50.6 | 0.8 | 0.80 | 19.9 | 1.3 | 1.27 | 3.2 | 0.7 | 0.74 | 811.5 | 0.8 | 0.83 | –
B6 | 1.8 | 0.4 | 0.41 | 205.9 | 0.6 | 0.64 | 44.8 | 0.7 | 0.71 | 15.7 | 1.0 | 1.00 | – | 0.0 | 0.00 | 728.5 | 0.7 | 0.74 | –
